Results published in the supplement of paper PMC12042874.
± gives the uncertainty stated by the source.

Test: amyloid nucleation score (Sup35N fusion, yeast selection) (log enrichment); library NNK3; higher = more nucleation; inactive = no reads after selection
Procedure, shortened: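 Libraries of peptides of 20 random codons fused to Sup35N were expressed in psi-negative yeast and induced 24 hours with 100 μM copper sulfate. Selection was 7 days at 30°C on medium lacking adenine and uracil, and plasmid inserts were Illumina-sequenced before and after selection. Nucleation score is the DiMSum log enrichment of output over input reads, centred on the mode score of non-aggregating sequences, and sequences with under 100 input reads were left out.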

Row | Substance | amyloid nucleation score
1 | MWWGLAPIFWLLITTTDCGY | inactive
2 | LCPVMLDRRSARSKGPALIL | inactive
3 | YGSIRLNMYWFVCVCTISWI | 0.661 ± 0.13
4 | IWTTPHVCPNLMMSARGCRL | inactive
5 | WQRWMA | inactive
6 | KSALTRPDARPVRYRQPTHS | inactive
7 | MICLLSSSCKRRCLMG | inactive
8 | YKGKWLFCRQMSCEHFFGFF | inactive
9 | TYFKSGRNILAHIYMWLILG | inactive
10 | LDTVTCNSLETAFGSFKNWL | inactive
11 | SWAYL | inactive
12 | GNPRNMTVDDSDGKSFYFFY | inactive
13 | WSMSSVTYNSVCSCGSWCE | 1.87 ± 0.091
14 | SAKIL | 0.118 ± 0.23
15 | FNFNLKFKTFGKMYFTGPES | 0.628 ± 0.25
16 | PYSTFLLCQGLTNYMYSSMS | inactive
17 | LYILGQIFR | inactive
18 | VSSSVVYTFVMSSLLGVDNE | inactive
19 | GISSKFRSPNRGNCYYRDIL | inactive
20 | ISKSHGYLYSNWKTCFSELS | inactive
21 | LLVLRGYSDVIFKNTLYGNE | inactive
22 | FKRLLARV | -0.362 ± 0.98
23 | ISPAESFPSSPERIHIVD | -0.789 ± 0.9

Row | Substance | amyloid nucleation score
24 | LSSDGFYFNTEYL | inactive
25 | KYKAWMVCHTHWSTVKVKRL | inactive
26 | TSVWVYTVPSFVGNDIDTS | inactive
27 | VLYVRNLMLYGNLCKALLAF | inactive
28 | VRSTTQHVHLICCNEYFRH | 2.82 ± 0.052
29 | SYFVLVWRETDFKHCLKGNF | inactive
30 | MLFRLRSAYHTASDVDANDD | inactive
31 | DVYSYKFDR | inactive
32 | RAYMVGCYDCSSYLDPFSYS | inactive
33 | VNLITCKQVSFRCQVSGILC | 2.19 ± 0.092
34 | ICDHVYVGNFLTQA | inactive
35 | SVYLGFIVGSVHPTHVISMR | inactive
36 | IKKHCV | inactive
37 | SWYRVNYTLPC | inactive
38 | SGIRDHLMRTKFDFVFKM | inactive
39 | TSGGQRAAVWIYFTNEVMKY | 0.207 ± 0.34
40 | LSAFVQDVLNVIQMLTEREF | inactive
41 | SLGVEVKCNTIP | inactive
42 | NGVVLLQIKIRDPRSCWWGV | inactive
43 | CHISFWLTLWGRSNSEMWMD | inactive
44 | GTNDSDFESWNVFKCINCLA | inactive
45 | TCLLIYFMFHGEVMPLWSI | inactive
46 | FISDRQSASYPWVQFWPE | 0.206 ± 0.7

Row | Substance | amyloid nucleation score
47 | HSVPLPMLYFHYNMILLMLL | inactive
48 | DKTYYYRDDSLV | inactive
49 | MHIFVLNLDLSRA | 2.61 ± 0.069
50 | CFLSWWLRDLVLSSCSTYVD | inactive
51 | LLLRFFRYLGYKLMRTIE | inactive
52 | CGRRYGTGAPRCL | inactive
53 | FLNIGYLNSRYNFLRNSVLV | inactive
54 | HWCVPL | inactive
55 | KKLHALESCA | inactive
56 | RFSSSSQPFYSFAIVRR | inactive
57 | EISSVAAYGSN | inactive
58 | GLSCDYCTNLVMCCDPQL | 0.06 ± 0.25
59 | DFWLHCGDK | inactive
60 | GTYSTVKFCLCMWVILAPSS | inactive
61 | RIVSVFLDNEQISRNGAVSS | -0.425 ± 0.59
62 | ILVDWFDCDQCKQTFCPGLV | inactive
63 | IWQCRYLRMGQ | inactive
64 | QSFGSHYASVMAKY | inactive
65 | FFALPDLALYNFFFCNPHYL | 2.27 ± 0.064
66 | CNVLEKYTLE | inactive
67 | YNSFSDYYSVFTQHVRDS | inactive
68 | FMGDRLKEAGDRTLYDQKVG | inactive
69 | LMFGVIMPITDDMFYGQESV | inactive

Row | Substance | amyloid nucleation score
70 | FWHNSG | inactive
71 | NTRTLSMYAVHGNIRVFMAE | 0.917 ± 0.17
72 | GSDLSWGRYKNSRFSSSMSA | inactive
73 | SCSGAMTLWFRQPALKHIL | inactive
74 | NTRREDSGWTNLCFWCARN | 2.01 ± 0.052
75 | VDSHANHGSNHRWSASDEIS | inactive
76 | VDNSFEYIWDLFTVDHMSGA | inactive
77 | NMENLKRGFVIWS | inactive
78 | NNTVDDSVFWNELDGHTWLV | inactive
79 | NYPLRFLGKLAAT | inactive
80 | RSSLNDNRYKCNSGSSVYGS | inactive
81 | AFKLYWKYCRYNPWVRNR | inactive
82 | FSSQYMSCIVRRHGGNLDAC | 0.033 ± 0.39
83 | LCVIWIVSHRRDCMAFCEQQ | inactive
84 | YMGILCMGLLNSKW | -0.606 ± 0.76
85 | TSRNESHTSDYSLLNHNSLL | inactive
86 | VLRRSYYRVSRPELPIWSN | -0.153 ± 1.1
87 | VLKLRVKVNQVVVDYVLESG | inactive
88 | KALGAEYNTHGTVSGCSLCK | inactive
89 | ARLPFCAISLTRYGWFSCRC | inactive
90 | HCFLRMWKLLRTYLQVVLET | inactive
91 | PMQTSNLNYCVCYCCAVRTF | 0.88 ± 0.34
92 | ESDFRLYSCFDWNVVAMNYR | 1.44 ± 0.074

Row | Substance | amyloid nucleation score
93 | FSLVMDCI | inactive
94 | QSSIHTFCLTLLLSKTYSYQ | inactive
95 | RLSNVSTMGGMRIPDLLEM | inactive
96 | ERQVYMVLGSICRKPTMERS | -1.05 ± 1.9
97 | FHQLGICKFKA | -0.387 ± 0.88
98 | PVLNAAVHDNFFTADHIRKK | inactive
99 | SSERSGRRRNWSVRSCLVGQ | inactive
100 | NYLGWPDIKCHGYVDSFLFV | inactive
101 | DVNGR | inactive
102 | RSYVTILDAFSWIM | -0.239 ± 0.66
103 | WHTDWRW | inactive
104 | YVHFAN | inactive
105 | PVVLLSWELMILLWVNSFAL | inactive
106 | SVHRLFISCKVWGFKVLWPV | inactive
107 | SLTVFLWVAQRVAAMRAGVL | inactive
108 | NYVVIPRFMYLVQIYLKVFW | -0.064 ± 0.8
109 | FRYVHIHLRYQPGF | inactive
110 | SDEKNKNVLGAYRVIMCVVY | inactive
111 | SWYVAFFNNSGFSCMGVFVG | inactive
112 | MTDFKSTLSTTSMFTGESLI | inactive
113 | GRVMVWIFIFMMGGMQANLS | inactive
114 | LKISALTIESMF | inactive
115 | FLRGLVK | inactive

Row | Substance | amyloid nucleation score
116 | ASYYVKEFVQREHSIYAN | inactive
117 | WKVMLRLALRMQCTHLAVCW | inactive
118 | VSGVECSCD | 0.762 ± 0.15
119 | RLYLKTDVSDTRHRYMWLSE | inactive
120 | LKNVTDKMHTYLRLEGSRHV | inactive
121 | EVSLFVTHIL | inactive
122 | YLTMLWLFHLRERAALMGLN | inactive
123 | TSFGPKLPTGVFVCEGSNDR | inactive
124 | WYYQVKMISVCSLIEGMWTS | inactive
125 | LYDSSTALATVSDHFVEWLS | inactive
126 | FGSFQMGLWFVMNEVDQVKG | inactive
127 | LPLPFFQRVNNGKSVLGVHL | inactive
128 | KRPWTVFFVFFIGFATLL | 1.15 ± 0.1
129 | LRFVSKLWWFISMSSRSHLH | inactive
130 | SCLTDKRSCFC | 0.538 ± 0.34
131 | HEVCS | inactive
132 | WESLIGLWASAGMIWVHWGS | inactive
133 | MEINGALRYMH | inactive
134 | CRCPSYMFHA | 0.703 ± 0.17
135 | LVYTVNLWNALIFHLD | 0.527 ± 0.22
136 | PYGLLQFNG | inactive
137 | QVTDEGD | inactive
138 | QRFVSIFPGI | inactive

Row | Substance | amyloid nucleation score
139 | GTMSNYPNGFSMSSSYFSTY | inactive
140 | KENFASVCCGCYPMQPPGIM | inactive
141 | THNVRDMLPATETFASKSGG | 1.1 ± 0.17
142 | LPGFSTCFARCDWWEVQPQG | inactive
143 | TAESTDCG | inactive
144 | NIGYSMLESPFIIIDICNSC | 0.619 ± 0.13
145 | VFVMETTKLFSNDIGVRGGW | 0.717 ± 0.15
146 | AYMCCYDAYTPRRSRCDWYI | -0.402 ± 1.1
147 | NAWIFVKRFS | inactive
148 | GYNVKGNP | inactive
149 | GPPCDFCIRVSVCYTGSVNW | 0.466 ± 0.39
150 | CLFQIIVNTSYIGKFHTVLG | 1.88 ± 0.057
151 | TFRWFDGIKTLMMD | inactive
152 | ERARAAWSNGKAGLLWSGPG | inactive
153 | ANGLAGDYE | -0.578 ± 1.3
154 | LLKCYRPFSVFIYFNVLASG | inactive
155 | LSPSVFVNSNRLMTESSRGF | inactive
156 | LNVGCLWRGDGGNRRAQWDV | inactive
157 | GRWFVCVQSAWCDCGGDVCV | inactive
158 | CYYTKVNVSS | 0.021 ± 0.26
159 | DIDRRQRVMHSPMKAWEEVG | -0.045 ± 0.98
